How the values were obtained:
Assay in all cases: purified protein
purified protein [1] = substrate: Nc1ccn([C@@H]2O[C@H](CO)[C@@H](O)[C@H]2O)c(=O)n1; conditions: labelled compound; purified transporter in proteoliposomes
purified protein [2] = substrate: O=c1ccn([C@@H]2O[C@H](CO)[C@@H](O)[C@H]2O)c(=O)[nH]1; assay type: biochemical, Saccharomyces cerevisiae; conditions: labelled compound; purified transporter in proteoliposomes
purified protein [3] = substrate: O=c1ccn([C@@H]2O[C@H](COP(=O)(O)OP(=O)(O)OP(=O)(O)O)[C@@H](O)[C@H]2O)c(=O)[nH]1; assay type: biochemical, Saccharomyces cerevisiae; conditions: labelled compound, purified transporter in proteoliposomes

Protein | Km (purified protein [1]) | Km (purified protein [2]) | Km (purified protein [3]; extrapolated beyond tested concentrations, not saturated) | Km (purified protein [3])
ScENT1 (FUN26) (Saccharomyces cerevisiae S288C) (protein, full-length, poly-His tagged (TALON, SEC), overexpressed in S. cerevisiae W303-delta-pep4, DDM-solubilised, reconstituted in proteoliposomes) MSTSADTDTIKKPILAVPEPALADTHSEEISRSGEEHESENNEHSDEEGDNYSEREQSVSTEPLDTLPLRKKLKNLSYITFFAIGIGLLWPWNCILSASQYFKHDIFKDTSIWAKIFTSSMMSFSTISSMLFNIYLAKRQYKYSRRVINGLVWEIIVFTVMCFFTILHFLLPKWFNFMFIMMLVVISSMGTAMTQNGIMAIANVFGSEYSQGVMVGQAVAGVLPSLVLFALAFIENSSVSTTGGILLYFFTTTLVVTICVVMFSVSKISRKVNENWNVEDGHITDVLLGSLRSNEEEIRIVGRIDQMEDEDHRRTNGTRDDNDEGEELQLKVPFEVLFAKLKYLVLSIFTTFVVTLVFPVFASATYVTGLPLSNAQYIPLIFTLWNLGDLYGRVIADWPMFRDQKFTPRKTFIYSLLRVAAIPLFLMFTAITSSSSGDEEHNGSVIVDLCYMLLQFLFGVTNGHVISMSFMKVPEQLDNDDEKEAAGGFTNIFVSTGLALGSIISYVFVFIIDFIIR | 0.195 µM | 0.327 µM |  | 
ScENT1 (FUN26) (Saccharomyces cerevisiae S288C; L390A) (protein, full-length, poly-His tagged (TALON, SEC), overexpressed in S. cerevisiae W303-delta-pep4, DDM-solubilised, reconstituted in proteoliposomes) MSTSADTDTIKKPILAVPEPALADTHSEEISRSGEEHESENNEHSDEEGDNYSEREQSVSTEPLDTLPLRKKLKNLSYITFFAIGIGLLWPWNCILSASQYFKHDIFKDTSIWAKIFTSSMMSFSTISSMLFNIYLAKRQYKYSRRVINGLVWEIIVFTVMCFFTILHFLLPKWFNFMFIMMLVVISSMGTAMTQNGIMAIANVFGSEYSQGVMVGQAVAGVLPSLVLFALAFIENSSVSTTGGILLYFFTTTLVVTICVVMFSVSKISRKVNENWNVEDGHITDVLLGSLRSNEEEIRIVGRIDQMEDEDHRRTNGTRDDNDEGEELQLKVPFEVLFAKLKYLVLSIFTTFVVTLVFPVFASATYVTGLPLSNAQYIPLIFTLWNLGDAYGRVIADWPMFRDQKFTPRKTFIYSLLRVAAIPLFLMFTAITSSSSGDEEHNGSVIVDLCYMLLQFLFGVTNGHVISMSFMKVPEQLDNDDEKEAAGGFTNIFVSTGLALGSIISYVFVFIIDFIIR |  | 0.215 µM | 2.92 µM | 
ScENT1 (FUN26) (Saccharomyces cerevisiae S288C; F249I) (protein, full-length, poly-His tagged (TALON, SEC), overexpressed in S. cerevisiae W303-delta-pep4, DDM-solubilised, reconstituted in proteoliposomes) MSTSADTDTIKKPILAVPEPALADTHSEEISRSGEEHESENNEHSDEEGDNYSEREQSVSTEPLDTLPLRKKLKNLSYITFFAIGIGLLWPWNCILSASQYFKHDIFKDTSIWAKIFTSSMMSFSTISSMLFNIYLAKRQYKYSRRVINGLVWEIIVFTVMCFFTILHFLLPKWFNFMFIMMLVVISSMGTAMTQNGIMAIANVFGSEYSQGVMVGQAVAGVLPSLVLFALAFIENSSVSTTGGILLYIFTTTLVVTICVVMFSVSKISRKVNENWNVEDGHITDVLLGSLRSNEEEIRIVGRIDQMEDEDHRRTNGTRDDNDEGEELQLKVPFEVLFAKLKYLVLSIFTTFVVTLVFPVFASATYVTGLPLSNAQYIPLIFTLWNLGDLYGRVIADWPMFRDQKFTPRKTFIYSLLRVAAIPLFLMFTAITSSSSGDEEHNGSVIVDLCYMLLQFLFGVTNGHVISMSFMKVPEQLDNDDEKEAAGGFTNIFVSTGLALGSIISYVFVFIIDFIIR | 0.452 µM |  |  | 0.13 µM
